Measurements as given in paper PMC9431274, “Stenotrophomonas maltophilia from Nepal Producing Two Novel Antibiotic Inactivating Enzymes, a Class A β-Lactamase KBL-1 and an Aminoglycoside 6′-N-Acetyltransferase AAC(6′)-Iap” (Microbiology Spectrum, 2022).

Assays:
KBL-1 = molecular target: T1, KBL-1 (Stenotrophomonas maltophilia, UniProt A0A7I8E9L1); assay: penicillin G hydrolysis, UV spectrophotometry; format: biochemical
T1 construct: gene blaKBL-1; full length 286 residues; expressed without signal peptide in E. coli BL21-CodonPlus (pET28a); His-tag removed by TEV

[1] = system: CC(C)(O/N=C(\C(=O)N[C@@H]1C(=O)N2C(C(=O)[O-])=C(C[n+]3ccccc3)CS[C@H]12)c1csc(N)n1)C(=O)O; assay: initial rate of hydrolysis, UV spectrophotometry, Lineweaver-Burk; format: biochemical, Stenotrophomonas maltophilia; settings: 37°C, 50 mM Tris-HCl pH 7.4, 0.3 M NaCl
From the text: (§1) initial rate of hydrolysis, UV spectrophotometry, Lineweaver-Burk on KBL-1

[2] = system: CC1(C)S[C@@H]2[C@H](NC(=O)Cc3ccccc3)C(=O)N2[C@H]1C(=O)O; assay: as above; format: biochemical, Stenotrophomonas maltophilia; settings: 37°C, 50 mM Tris-HCl pH 7.4, 0.3 M NaCl
From the text: as §1

[3] = system: CC1(C)S[C@@H]2[C@H](NC(=O)[C@H](N)c3ccc(O)cc3)C(=O)N2[C@H]1C(=O)O; assay: as above; format: biochemical, Stenotrophomonas maltophilia; settings: 37°C, 50 mM Tris-HCl pH 7.4, 0.3 M NaCl
From the text: as §1

[4] = system: CC1(C)S[C@@H]2[C@H](NC(=O)[C@H](N)c3ccccc3)C(=O)N2[C@H]1C(=O)O; assay: as above; format: biochemical, Stenotrophomonas maltophilia; settings: 37°C, 50 mM Tris-HCl pH 7.4, 0.3 M NaCl
From the text: as §1

[5] = system: CC1=C(C(=O)O)N2C(=O)[C@@H](NC(=O)[C@H](N)C3=CCC=CC3)[C@H]2SC1; assay: as above; format: biochemical, Stenotrophomonas maltophilia; settings: 37°C, 50 mM Tris-HCl pH 7.4, 0.3 M NaCl
From the text: as §1

[6] = system: CCN1CCN(C(=O)N[C@@H](C(=O)N[C@@H]2C(=O)N3[C@@H]2SC(C)(C)[C@@H]3C(=O)O)c2ccccc2)C(=O)C1=O; assay: as above; format: biochemical, Stenotrophomonas maltophilia; settings: 37°C, 50 mM Tris-HCl pH 7.4, 0.3 M NaCl
From the text: as §1

[7] = system: CO/N=C(\C(=O)N[C@@H]1C(=O)N2C(C(=O)O)=C(COC(C)=O)CS[C@H]12)c1csc(N)n1; assay: as above; format: biochemical, Stenotrophomonas maltophilia; settings: 37°C, 50 mM Tris-HCl pH 7.4, 0.3 M NaCl
From the text: as §1

[8] = system: CO/N=C(\C(=O)N[C@@H]1C(=O)N2C(C(=O)[O-])=C(C[N+]3(C)CCCC3)CS[C@H]12)c1csc(N)n1; assay: as above; format: biochemical, Stenotrophomonas maltophilia; settings: 37°C, 50 mM Tris-HCl pH 7.4, 0.3 M NaCl
From the text: as §1

[9] = system: CO[C@@]1(NC(=O)C(C(=O)O)c2ccc(O)cc2)C(=O)N2C(C(=O)O)=C(CSc3nnnn3C)CO[C@@H]21; assay: as above; format: biochemical, Stenotrophomonas maltophilia; settings: 37°C, 50 mM Tris-HCl pH 7.4, 0.3 M NaCl
From the text: as §1

[10] = system: CO[C@@]1(NC(=O)Cc2cccs2)C(=O)N2C(C(=O)O)=C(COC(N)=O)CS[C@@H]21; assay: as above; format: biochemical, Stenotrophomonas maltophilia; settings: 37°C, 50 mM Tris-HCl pH 7.4, 0.3 M NaCl
From the text: as §1

[11] = system: C[C@@H](O)[C@H]1C(=O)N2C(C(=O)O)=C(SCCN=CN)C[C@H]12; assay: as above; format: biochemical, Stenotrophomonas maltophilia; settings: 37°C, 50 mM Tris-HCl pH 7.4, 0.3 M NaCl
From the text: as §1

[12] = system: C[C@@H](O)[C@H]1C(=O)N2C(C(=O)O)=C(S[C@@H]3CN[C@H](C(=O)N(C)C)C3)[C@H](C)[C@H]12; assay: as above; format: biochemical, Stenotrophomonas maltophilia; settings: 37°C, 50 mM Tris-HCl pH 7.4, 0.3 M NaCl
From the text: as §1

T1 sequence (A0A7I8E9L1 entry or part of it): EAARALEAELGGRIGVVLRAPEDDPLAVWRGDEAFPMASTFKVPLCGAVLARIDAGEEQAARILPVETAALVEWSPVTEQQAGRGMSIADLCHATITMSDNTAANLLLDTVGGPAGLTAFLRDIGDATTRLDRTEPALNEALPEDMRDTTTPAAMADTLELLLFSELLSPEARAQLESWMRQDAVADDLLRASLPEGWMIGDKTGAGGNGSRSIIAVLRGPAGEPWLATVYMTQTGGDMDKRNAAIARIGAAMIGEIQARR

In the case of O=C(O)[C@H]1/C(=C/CO)O[C@@H]2CC(=O)N21 [clavulanic acid], the IC50 (KBL-1) is reported as 210 nM.
In the case of CC1(C)[C@H](C(=O)O)N2C(=O)C[C@H]2S1(=O)=O [sulbactam], the IC50 (KBL-1) is reported as 1200 nM.
With KBL-1 (Stenotrophomonas maltophilia) the Km [1] was 45 ± 12 µM, the kcat [1] was 0.013 ± 0.003 s⁻¹ and the kcat/Km [1] was 300 M⁻¹ s⁻¹. For the same compound, the Km [2] was 21 ± 5 µM, the kcat [2] was 24 ± 2 s⁻¹ and the kcat/Km [2] was 1.17e+06 M⁻¹ s⁻¹. For the same compound, the Km [3] was 23 ± 4 µM, the kcat [3] was 10 ± 0.4 s⁻¹ and the kcat/Km [3] was 455000 M⁻¹ s⁻¹. It also gave a Km [4] of 37 ± 8 µM, a kcat [4] of 19 ± 1 s⁻¹ and a kcat/Km [4] of 532000 M⁻¹ s⁻¹. It also gave a Km [5] of 605 ± 45 µM, a kcat [5] of 2.23 ± 0.13 s⁻¹ and a kcat/Km [5] of 4000 M⁻¹ s⁻¹. It also gave a Km [6] of 52 ± 7 µM, a kcat [6] of 22 ± 1 s⁻¹ and a kcat/Km [6] of 422000 M⁻¹ s⁻¹. For the same compound, the Km [7] was 31 ± 5 µM, the kcat [7] was 1.33 ± 0.053 s⁻¹ and the kcat/Km [7] was 44000 M⁻¹ s⁻¹. It also gave a Km [8] of 79 ± 2 µM, a kcat [8] of 0.751 ± 0.029 s⁻¹ and a kcat/Km [8] of 10000 M⁻¹ s⁻¹. It also gave a Km [9] of 49 ± 4 µM, a kcat [9] of 0.392 ± 0.009 s⁻¹ and a kcat/Km [9] of 8000 M⁻¹ s⁻¹. It also gave a Km [10] of 57 ± 6 µM, a kcat [10] of 0.032 ± 0.002 s⁻¹ and a kcat/Km [10] of 1000 M⁻¹ s⁻¹. The Km [11] was 85 ± 7 µM, the kcat [11] was 1.13 ± 0.143 s⁻¹ and the kcat/Km [11] was 13000 M⁻¹ s⁻¹. It also gave a Km [12] of 39 ± 6 µM, a kcat [12] of 0.443 ± 0.056 s⁻¹ and a kcat/Km [12] of 11000 M⁻¹ s⁻¹.
